The target of the assay is SARS-CoV-2 spike RBD (WT) (Severe acute respiratory syndrome …, UniProt P0DTC2). Kind of assay: ELISA. Further details: unit not given here. (In general: ELISA stands for enzyme-linked immunosorbent assay.)

Among the data in PMC9876794 (2022) are binding score values, retold here.

Substitutions are numbered along the chain they refer to. Some results are limits rather than exact numbers.

B1: D110 (antibody, V domains shown)
VH: EVQLLESGGGLVQPGGSLRLSCTASGFTFSNYAMNWVRQAPGQGLEWVSAISGSGYSTYYVDSAKGRFTISRDNSKNTLYLQMNSLRADDTAVFYCTKSTYYDNSGYYSVFDYWGQGTLVTVSS
VL: NFMLTQPHSVSESPGETVTISCTRSSGNIASKFVQWFQQRPGSSPTTVIYENNQRPSGVPDRFSGSIDSSSNSASLTISGLKTEDEADYYCQSSDSTNVVFGGGTKLTVL
Consider B1, for which the binding score turned out to be 2330.

B2: D185 (antibody, V domains shown)
VH: QVQLVQSGAEVKKPGSSVKVSCKASGGTFSSYAISWVRQAPGQGLEWMGGIIPIFGTANYAQKFQGRVTITADKSTSTAYMELSSLRSEDTAVYYCARAQQQLVQHGGYGMDVWGQGTTVTVSS
VL: QSVLTQPPSVSGAPGQRVTISCTGSSSNIGAGYDVHWYQQLPGTAPKLLIYGNSNRPSGVPDRFSGSKSGTSASLAITGLQAEDEADYYCQSYDSSLSAVVFGGGTKLTVL
Turning to B2, the binding score is > 10000.

B3: D170 (antibody, V domains shown)
VH: QVQLVQSGAEVKKPGSSVKVSCKASGGTFSSYAISWVRQAPGQGLEWMGGIIPIFGTANYAQKFQGRVTITADESTSTAYMELSSLRSEDTAVYYCAREGGYCSGGSCSHYFDAFDIWGQGTMVTVSS
VL: QSALTQPASVSGSPGQSITISCTGTSSDVGSYNLVSWYQQHPGKAPKLMIYEGSKRPSGVSNRFSGSKSGNTASLTISGLQAEDEADYYCCSYAGSSTFWVFGGGTKLTVL
Regarding B3, the binding score is 3050.

B4: D176 (antibody, V domains shown)
VH: QVQLVQSGAEVKKPGASVKVSCKASGYTFTSYDINWVRQATGQGLEWMGWMNPNSGNTGYAQKFQGRVTITRNTSISTAYMELSSLRSEDTAVYYCARGGSLMDVWGKGTTVTVSS
VL: B3 VL with S2F, A3V, S31G, L34Y, E52D, G53V, C91S, A94T, G95S, W100E
B4 showed a binding score of 1430.

B5: C2713 (antibody, V domains shown)
VH: QVQLVQSGAEVKKPGASVKVSCKASGYTFTSYYMHWVRQAPGQGLEWMGIINPSGGSTSYAQKFQGRVTMTRDTSTSTVYMELRSLRSEDTAVYYCARDRSSNYGMDVWGQGTTVTVSS
VL: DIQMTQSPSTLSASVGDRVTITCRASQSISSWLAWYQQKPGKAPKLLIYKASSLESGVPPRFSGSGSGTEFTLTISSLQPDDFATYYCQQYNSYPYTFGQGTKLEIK
With B5, the binding score was found to be 4560.

B6: D161 (antibody, V domains shown)
VH: EVQLLESGGGLVQPGGSLRLSCAASGFTFSSYAMSWVRQAPGKGLEWVSAISGSGGSTSYADSVKGRFTISRDNSKNTLYLQMNSLRVEDTAVYYCAKGPRVTTEYFEYWGQGTLVTVSS
VL: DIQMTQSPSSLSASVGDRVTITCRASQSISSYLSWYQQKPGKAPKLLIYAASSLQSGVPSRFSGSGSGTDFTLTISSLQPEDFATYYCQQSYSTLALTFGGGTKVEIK
As for B6, the binding score was > 10000.

B7: D023 (antibody, V domains shown)
VH: EVQLVQSGAEVKKPGESLKISCKGSGYSFTSYWIGWVRQMPGKGLEWMGIIYPGDSDTRYSPSFQGQVTISADKSISTAYLQWSSLKASDTAMYYCAISYSGSYSGAFDIWGQGTMVTVSS
VL: not shown
On to B7, for which the binding score is > 10000.

B8: D153 (antibody, V domains shown)
VH: QVQLVQSGAEVKKPGASVKVSCKASGYTFTSYGISWVRQAPGQGLEWMGWISAYNGNTNYAQKLQGRVTMTTDTSTSTAYMELRSLRSDDTAVYYCARDFNDFWSGYWGYWGQGTLVTVSS
VL: QSALTQPPSASGSPGQSVTISCTGTSSDVGGYNYVSWYQQHPGKAPKLMIYEVSKRPSGVPDRFSGSKSGNTASLTVSGLQAEDEADYYCSSYAGSNNLVFGGGTKLTVL
Take B8: the binding score is > 10000.

B9: D175 (antibody, V domains shown)
VH: QLQLQESGPGLVKPSETLSLTCTVSGGSISSSSYYWGWIRQPPGKGLEWIGSIYYSGSTYYNPSLKSRVTISVDTSKNQFSLKLSSVTAADTAVYYCARGATYYYDSSGYYTPAPFDYWGQGTLVTVSS
VL: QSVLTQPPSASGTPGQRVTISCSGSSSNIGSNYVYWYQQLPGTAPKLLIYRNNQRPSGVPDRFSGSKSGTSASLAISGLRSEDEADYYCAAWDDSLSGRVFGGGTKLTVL
For the molecule B9, the binding score was > 10000.

B10: D021 (antibody, V domains shown)
VH: QVQLVESGGGVVQPGRSLRLSCAASGFTFSSYGMHWVRQAPGKGLEWVAVISYDGSNKYYADSVKGRFTISRDNSKNTLYLQMNSLRAEDTAVYYCAKAGQYGDYTHSGDYWGQGTLVTVSS
VL: DIQMTQSPSSLSASVGDRVTITCQASQDISNYLNWYQQKPGKAPKLLIYDASNLETGVPSRFSGSGSGTDFTFTISSLQPEDIATYYCQQYDNLPIAFGQGTRLEIK
Consider B10, for which the binding score amounted to 4670.

B11: D163 (antibody, V domains shown)
VH: QVQLVQSGAEVKKPGASVKVSCKASGYTFTSYYMHWVRQAPGQGLEWMGIINPSGGSTSYAQKFQGRVTMTRDTSTSTVYMELSSLRSEDTAVYYCARDFSLIPATAMVLDYWGQGTLVTVSS
VL: DIQMTQSPVSLSASVGDRVTITCRASQSISSWLAWYQQKPGKAPKLLIYKASSLESGVPSRFSGSGSGTEFTLTISSLQPDDFATYYCQQYNSYASFGQGTKVEIK
Consider B11, for which the binding score is > 10000.

B12: D052 (antibody, V domains shown)
VH: EVQLVESGGGLVQPGGSLRLSCAASGFTFSSYDMHWVRQATGKGLEWVSAIGTAGDTYYPGSVKGRFTISRENAKNSLYLQMNSLRAGDTAVYYCARVGYSLYGDYKSYWYFDLWGRGTLVTVSS
VL: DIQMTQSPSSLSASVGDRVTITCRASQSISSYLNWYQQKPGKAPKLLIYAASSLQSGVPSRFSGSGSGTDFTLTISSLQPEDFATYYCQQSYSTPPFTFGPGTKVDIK
B12 displayed a binding score of 49.

B13: D097 (antibody, V domains shown)
VH: EVQLVQSGAEVKKPGESLKISCKGSGYSFTSYWIGWVRQMPGKGLEWMGIIYPGDSDTRYSPSFQGQVTISADKSISTAYLQWSSLKASDTAMYYCARLGDAGAFDIWGQGTMVTVSS
VL: QSVLTQPPSVSGAPGQRVTISCTGSSSNIGAGYDVHWYQQLPGTAPKLLIYGNSNRPSGVPDRFSGSKSGTSASLAITGLQAEDEADYYCQSYDSSLSGSKVFGGGTKLTVL
As for B13, the binding score was > 10000.

B14: D010 (antibody, V domains shown)
VH: EVQLVESGGGLVQPGRSLRLSCAAFGFTFDDYAMHWVRQAPGKGLEWVSGISWNSGSIGYADSVKGRFTISRDNAKNSLYLQMNSLRAEDTALYYCAKDITFRDGYPGAVDYWGQGTLVTVSS
VL: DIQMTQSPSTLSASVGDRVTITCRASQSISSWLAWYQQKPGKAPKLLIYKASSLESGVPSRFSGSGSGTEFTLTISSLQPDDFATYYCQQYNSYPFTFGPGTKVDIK
Turning to B14, the binding score was > 10000.

B15: D151 (antibody, V domains shown)
VH: QVQLQQWGAGLLKPSETLSLTCAVYGGSFSGYYWSWIRQPPGKGLEWIGEINHDGDTNYNPSLKSRVTLSVDTSKNQFSLSLSSVTAADTAVYYCARRKQQQSYYYYSIDVWGQGTTVTVSS
VL: DIQMTQSPSSLSASVGDRVTITCRATQGIRNDLGWYQQKPGKAPKRLIYAASSLQSGVPSRFSGSGSGTEFTLTISSLQPEDFATYYCLQHSSYPLTFGGGTKVEIK
Consider B15, for which the binding score is > 10000.

B16: D180 (antibody, V domains shown)
VH: EVQLVESGGGLVQPGGTLRLSCEASGFAFSTFWMTWVRQAPGKGLEWVANIKQDGSEKYYVDSVKGRFTISRDNAKNSLYLQMNSLRAEDTAVYYCASRSIVVAGTDYWGQGTLVTVSS
VL: not shown
Take B16: the binding score came out at 8900.

B17: D026 (antibody, V domains shown)
VH: EVQLVESGGGLVQPGRSLRLSCAASGFTFDDYAMHWVRQAPGKGLEWVSGISWNSGSIGYADSVKGRFTISRDNAKNSLYLQMNSLRAEDTALYYCAKDIHYDSSGLDYWGQGTLVTVSS
VL: not shown
Take B17: the binding score was > 10000.

B18: D139 (antibody, V domains shown)
VH: QVQLVESGGGVVQPGRSLRLSCAASGFTFSSYGMHWVRQAPGKGLEWVAVISYDGSNKYYADSVKGRFTISRDNSKNTLYLQMNSLRAEDTAVYYCAKMGGGVYCSGGSCYSSYFDYWGQGTLVTVSS
VL: AIQLTQSPSSLSASVGDRVTITCRASQGISSALAWYQQKPGKAPKLLIYDASSLESGVPSRFSGSGSGTDFTLTISSLQPEDFATYYCQQFNNYLPLTFGGGTKVEIK
B18 showed a binding score of 311.

B19: C2692 (antibody, V domains shown)
VH: EVQLVESGGGLVQPGRSLRLSCAASGFTFDDYAMHWVRQAPGKGLEWVSGISWNSGSIGYADSVKGRFTISRDNAKNSLYLQMNSLRAEDTALYYCAKDIDTMVQGGEFYFDYWGQGTLVTVSS
VL: QSALTQPASVSGSPGQSITISCTGTSSDVGGYNYVSWYQQHPGKAPKLMIYDVSNRPSGVSNRFSGSKSGNTASLTISGLQAEDEADYYCSSYTSSSTVVFGGGTKLTVL
For the molecule B19, the binding score stood at 1200.

B20: D182 (antibody, V domains shown)
VH: QVQLVESGGGVVQPGRSLRLSCAASGFTFSSYGMHWVRQAPGKGLEWVAVISYDGSNKYYADSVKGRFTISRDNSKNTLYLQMNSLRAEDTAVYYCAKATVLMVYAGFDYWGQGTLVTVSS
VL: NFMLTQPHSVSESPGKTVTISCTGSSGSIASNYVQWYQQRPGSAPTTVIYEDNQRPSGVPDRFSGSIDSSSNSASLTISGLKTEDEADYYCQSYDSSNRWVFGGGTKLTVL
Consider B20, for which the binding score is 2500.

B21: D156 (antibody, V domains shown)
VH: EVQLLESGGGLAQPGGSLRLSCAASGFTFSSYAMSWVRQAPGKGLEWVSAISGSGGTYYADFVKGRFTISRDDSKNTLYLQINSLRAEDTAIYYCAKDGYGSGNYKLRYLELWGRGTLVTVSS
VL: QSVLTQPASVSGSPGQSITISCTGTSSDVGGYNYVSWYQQHPGKAPKFMIYDVSKRPSGVSNRFSGSKSGNTASLTISGLQAEDEADYYCFSYAGSLVFGGGTKLTVL
Take B21: the binding score is > 10000.

B22: D179 (antibody, V domains shown)
VH: EVQLVESGGGLVQPGRSLRLSCAASGFTFDDYAMHWVRQAPGKGLEWVSGISWNSGSIGYADSVKGRFTISRDNAKNSLYLQMNSLRAEDTALYYCAKGQIVGATSSDYGMDVWGQGTTVTVSS
VL: DIQMTQSPSSVSASVGDRVTITCRASQGISSWLAWYQQKPGKAPKLLIYAASSLQSGVPSRFSGSGSGTDFTLTISSLQPEDFATYYCQQANSFPYTFGQGTKLEIK
In turn, B22 yielded a binding score of 8900.

B23: D123 (antibody, V domains shown)
VH: EVQLVESGGGLVQPGRSLRLSCAASGFIFDDYAMHWVRQVPGKGLEWVSGISWNGGIIGQADSVKGRFTISRDNAKNSLYLQMNNLRAEDTALYFCTKDVGPGSPNYFDSWGQGTLVTVSS
VL: DIQMTQSPSTLSASVGDRVTITCRASQSISSWLAWYQQKPGKAPKFLIYKTSNLENGVPSRFSGSGSGTEFTLTISSLQPDDFATYFCQEYITNSRTFGQGTRLEIK
The molecule B23 gave a binding score of 7780.

B24: C2725 (antibody, V domains shown)
VH: EVQLVESGGGLVQPGRSLRLSCAASGFTFDDYAMHWVRQAPGKGLEWVSGISWNSGSIGYADSVKGRFTISRDNAKNSLYLQMNSLRAEDTALYYCAKLSRGHYYDFKADSGDFDYWGQGTLVTVSS
VL: QSALTQPASVSGSPGQSITISCTGTSSDVGSYNLVSWYQQHPGKAPKLMIYEGSKRPSGVSNRFSGSKSGNTASLTISGLQAEDEADYYCCSYAGSSWVFGGGTKLTVL
Molecule B24 registered a binding score of 230.
